Test results: a protein production outcome set (Wang et al. 2014)

Assay: label from the status in PepcDB records

Sequence	protein production
MRAPLPELPAGTRFGAWAIDRLIGAGGMGQVYLGHRADGAYEREVAIKLVAADALDAQGRALFEFECRLLAQMVHPAIAQIHDVGTDAHGQPYLVMEYLRGEPITWWCDEHRLSLHARVLLMLRVGEAVQHAHQKGVIHRDLKPSNVLVSEIDGRPMPGVIDFGIAVDATNPGMTYAHDRGTPGYMSPEQARGAQDVDARSDIYALGAMFYELSCGLAPVAGRDGVPQPPSQRVAAVPADARARICAARATTYQKLHEQLRDGLDAIVLRALEPQPGARYASVSALLDDLHRWLDGYPPRALQASRWLRLRKFTQRHRSGVAAAGLAAIAVVAGLGATLWSLQQAARDAQRAQVTGDFMSSVLSSVDPGVARDLDKTLMLRVMQQASQRAARELADQPDARTQVELTLGRTLIALANFPQAVEHLRIAQTLAQQTAGAGSLPALKAASMLGQALTGDGKPGDAERVLRQGIAQAARGDAQQQAMGNELRAWLAWALREQGRMRDALAESRHAYVAALANASSSADQRIDAGNSYAAMLADNGQLVPAIALQRSLLRERMAMRGPEHPLVVSMRNSLAVFLLMQRDFAGAEAELVPLLRVTRTLYGESAADTLMIEGNLAGALRQQGKVAEAGPYYRRALERARAAFGNDAPVTIAYRSNHAFWLLDDGQVDASLAEQRAALTASERVLGRAHPQTAEILRGMSEAERRLGQTVAARDHARQALQILTGIFGDADAPLRAARQTLASATPPADSREAEATTAVAQR	failed
MRARLYAAFRQVGEDLFAQGLISATAGNFSVRTKGGFLITKSGVQKARLTPEDLLEVPLEGPIPEGASVESVVHREVYRRTGARALVHAHPRVAVALSFHLSRLRPLDLEGQHYLKEVPVLAPKTVSATEEAALSVAEALREHRACLLRGHGAFAVGLKEAPEEALLEAYGLMTTLEESAQILLYHRLWQGAGPALGGGE	not failed
MRARPYPTSTYFVSTADGRLPAMSQPIAAPFRQQLLDLVARIPPGRVMTYGQLALLAGQPGAARQAGAVMHSLKDSDLPWQRVINAQGRVSTYKVGLGEVQEGLLRAEGIEFDDAGRCDLSRYQWWPDENAANIAQRLL	failed
MRASHETTTSMGHDHNHAPSEIRHETPLWWALGLTATFLLAEIIGAFVTNSLALLSDAAHMATDTVGLMIALVAVRLSRRPADARRTYGYVRLEALGALANGALLFAVGGYILWEAAQRVRAPQDIAYGGMLLIAGFGLVINLIAMKLLHAGSGESLNVKGAYLEVWSDMLGSMAVIIGALLIHWTSWQWIDPVLAVLIGLWVLPRTWVLLREAINVLLEGVPKGIDLAQVQQALTSHPGVEDVHDLHVWALASSTPALTAHIVVNEATDRDRLRDALATLLHDRFDIVHVTLQVESGDCGTEPCGTPKPAADAGHDAHHGHSHAHGHSHH	failed
MRAVIPYKKAGAKSRLSPVLSLQEREEFVELMLNQVISSLKGAGIEQVDILSPSVYGLEEMTEARVLLDEKDLNEALNRYLKEAEEPVLIVMADLPLLSPEHIKEISSTEKDVCIVPGKGGGTNALFIKNPSKYRVKYYGSSFLTHCSIATDSGQDFEIYDSFMAGTDIDEPEDLVELLIHGKGAAKDYIESKFRLEVKKGRVGLVPL	not failed
MRAVLTWRDKAEHCINDIAFKPDGTQLILAAGSRLLVYDTSDGTLLQPLKGHKDTVYCVAYAKDGLWSPEQKSVSKHKSSSKIICCSWTNDGQYLALGMFNGIISIRNKNGEEKVKIERPGGSLSPIWSICWNPSREERNDILAVADWGQKVSFYQLSGKQIGKDRALNFDPCCISYFTKGEYILLGGSDKQVSLFTKDGVRLGTVGEQNSWVWTCQAKPDSNYVVVGCQDGTISFYQLIFSTVHGLYKDRYAYRDSMTDVIVQHLITEQKVRIKCKELVKKIAIYRNRLAIQLPEKILIYELYSEDLSDMHYRVKEKIIKKFECNLLVVCANHIILCQEKRLQCLSFSGVKEREWQMESLIRYIKVIGGPPGREGLLVGLKNGQILKIFVDNLFAIVLLKQATAVRCLDMSASRKKLAVVDENDTCLVYDIDTKELLFQEPNANSVAWNTQCEDMLCFSGGGYLNIKASTFPVHRQKLQGFVVGYNGSKIFCLHVFSISAVEVPQSAPMYQYLDRKLFKEAYQIACLGVTDTDWRELAMEALEGLDFETAKKAFIRVQDLRYLELISSIEERKKRGETNNDLFLADVFSYQGKFHEAAKLYKRSGHENLALEMYTDLCMFEYAKDFLGSGDPKETKMLITKQADWARNIKEPKAAVEMYISAGEHVKAIEICGDHGWVDMLIDIARKLDKAEREPLLLCATYLKKLDSPGYAAETYLKMGDLKSLVQLHVETQRWDEAFALGEKHPEFKDDIYMPYAQWLAENDRFEEAQKAFHKAGRQREAVQVLEQLTNNAVAESRFNDAAYYYWMLSMQCLDIAQADPAQKDTMLGKFYHFQRLAELYHGYHAIHRHTEDPFSVHRPETLFNISRFLLHSLPKDTPSGISKVKILFTLAKQSKALGAYRLARHAYDKLRGLYIPARFQKSIELGTLTIRAKPFHDSEELVPLCYRCSTNNPLLNNLGNVCINCRQPFIFSASSYDVLHLVEFYLEEGITDEEAISLIDLEVLRPKRDDRQLEIANNSSQILRLVETKDSIGDEDPFTAKLSFEQGGSEFVPVVVSRLVLRSMSRRDVLIKRWPPPLRWQYFRSLLPDASITMCPSCFQMFHSEDYELLVLQHGCCPYCRRCKDDPGP	failed
MRCLRHARRQSQGVRGGRGMARADRGDGDGDAEAEDGRHSTASDARLTQLLRTDTATAYPALRELRTRHRPAVLGYARLCTVDDAAARRLTAQAFALAARDTARGSDPRGPWRHQLLLLAGRVAASWAADERAARLDPDLLAHLGAAGSRAQVPPLLAAFQSLPSRVQGVVWYAVVEGEPDDRTADFVGLTREDVTYGTEPAFQSLRQSCLTTRLAASDDPRCQDFRRLIEESVRPDNPRYSADLHAHMVHCVYCATAYDELSALRDDPRTALAAGLLAWGGAAYVTGGAVTRRAVAGGPGPSGPGPGDPGPGPAPGWWPSRRFVLASTALGVALIPFLAYLLVSGGPEPERAANAVATPSRPPAVTVTATVSATPSPSPSHTAGKSPKPSRSPSASKTTRPPSPKPSPKPPAPHPPNGSFAQVVNADSGLCLDIRDGVMDLGTDVVTAPCTSSRTQRWRVDTARGVLQSSEDPDFCLDSRGSTDRGVGIWECGAVYGRNGRNLRFTVDAQGVIRPAVAPDHAVTPYGDALFLVPAEGRAAQRWRAGAA	failed
MRCRFPYDGKQRIILEEGYPVYECNKFCGCSRTCQNRVLQNGIRAKLEVFRTESKGWGLRACEHILRGTFVCEYIGEVLDQQEANKRRNQYGNGDCSYILDIDANINDIGRLMEEELDYAIDATTHGNISRFINHSCSPNLVNHQVIVESMESPLAHIGLYASMDIAAGEEITRDYGRRPVPSEQENEHPCHCKATNCRGLLS	failed
MRDMEFIEWYPRGYGVAFKVKRKILEEQSEYQKIEVYETEGFGKLLAIDGTVQLVTEGEKSYHEPLVHPAMLAHPNPRRVLIIGGGDGGAIREVLKHEEVEEVIMVEIDKKVIEISAKYIGIDGGILEKMLSDKHEKGKLIIGDGVKFIEENSGFDVIIVDSTDPVGPAEMLFSEEFYKNAYRALNDPGIYVTQAGSVYLFTDEFLTAYRKMRKVFDKVYYYSFPVIGYASPWAFLVGVKGSIDFMKVDAEKGKKLGLEYYDPDKHETLFQMPRYIVQML	not failed
MRDPVSRLPNREQFQSDLYDLADENPGERRVLVLVDAVDMTVAHELTLAMGLAPFETIVRFLAQQLLAYLGRHVRVYHVSVKRFGFLLPAAPGIERFLESLVRRLRRQPPGLELPMIPGVCAGTVEFSTDRDAVPDVLRKAMFALELATLNRSTWAPYDVVRLEHHHHHH	failed
MRDTGTSESNRSGDVVLGDDWVAPHSTVSKELRVKRARRSLFSLRGSPLTRKIITFNLIALIILVAGILYLNDARNGLVVQRAGALVGETQLVADVFEAQITGSAPVNLATGDGVDVDATLEDLSLRRGVEVFVFDTARNMVGQTKGTHVNPRLQALFEDKTGSTIITDALSGLWRAVSSIFANAPKSSAPALEQQIASLLPEALAGETRVETVLNTAGGTVIAAATPILQAGTPIGAVAMASPAGEIDALARRDRERVLQMFVVALLVSVGLSLVLASTIANPLADLAEAAELGRDRNSRRMNPGRIRIPDLSARPDEIGRLSRALRGMVSALYNRIEGNEQFAADVAHEIKNPLASLQSAVGTLRMVRREDQRDKLLSVIEHDVRRLDRLVSDISNASRLDAELVKEEEQSFNLLTMLDNLNQYLGEDARSKGIDYITDMPPDPIMIQGLEARLAQVFVNLITNAISFCEDGDAIRVWTRRRANRVLIVVEDTGPGIPDEALAKIFKRFYSQRPEEHFGNNSGLGLAISKQIVEAHGGVIWAENIRPTEADVTSDPLGARFVVGLPI	not failed
MRDVIIALLPATIFGIINFEINAMILILTCVVSCVLFEWLYQKMMNRKVTIYDLSAVVTGLLLALNLSPDVPIWMAILGSAFAIIIVKQLFGGLGFNFMNPALGARCFLLISFAGRMTSFSYDGVTTATPLAVLKNTGDLANVNVLHMFLGNIPGTIGETSVVCILVGAAYLLIRRVIKPVIPLTYIGTFAVLIMIYALASGRGFDLTFLAAHLCGGGLMLGAFFMATDYVTSPITPAGKVVFGVILGILTFCFRIYGGSAEGVSYAIIFSNLLVPLIERWTQPKSFGEGAELAAQGDTSGTKSKMDTRSIIIATIAIMIITVIAGFALAYVYKVTKDPIAVTEQKAKEEAYKAVFGDADSFDSYSDFDADAAAKVLKDAGYNADIDEVVEAKNSDGSVLGYVVTVTSHEAYSGDLQLAMGVRTDGTTNGISFLSLSETAGLGMEADTDSFKSQFAGKKVDKFKYTKSGATVDEEIDALSGATITTNAVTNAVDAGLEYVKSINGGAADPSNALDETDASNGGDK	failed
MREEELNTEKVVAAIANPVENEVRKVWEDVVEKIEQRVAVIEQASHKLLQNKVSEEILSKAKVEAHKLAGSLGMFGSDEGSQIAQEIESLLDNGKKLKASGGKHLGQVVEALHQELENLKSGLEHHHHHH	not failed
MREHFVNEFMAVLSNKLTEDALSIVYQSLTLFVSNYEISERNTEVVPYTGYLPECYETYFVTRKIEGMSMKSLELYNLVLKDFFFKLNKEICKISTNDIRVYLYKNQQERNLSNSTLDTKRTIIHAFFEWAANEGYIGSNPCRNIKPIKYERPKRKPLTGIELEKVRNACDNLKDKALLELFYSTGCRVTEMERLDISDIDFQTKEVLLFGKGDKHRISYLNAKAEIAIRNYLDSRNDNEEALFVSDRKPYGRLKKPAIEKRIRVLGEKSGIGRRLYPHLIRHTTATDGLDRGMPVEEVQQILGHVNIATTMIYAEVSRANVKNNHRKCIV	failed
MRERLFANVRLRLSGGRQAAYISRAMSAAPDLRDPPPAHVRRLDPILVDRIAAGEVVERPASAVKELVENAIDAGARSIEVAIEGGGRRLIRVVDDGIGMGPDDLALAVERHATSKLPDGDLTRIGSLGFRGEALPSIGAVSRLTITSRTADGEGVSLTLDSGVKGPVRPAPASRGTRIEVTELFAATPARLKFLKTDRAETAAVSEILRRLAVAQPRIRFTLRTESGSPTVFPAESEPGPAALLRRLGAVLGPDFPGNAVPVDMAREGFALAGHVGLPTFHRGAASHIHFVVNGRPVRDRLLLGAVRGAYADTMSSDRHPVLALHLTCDPALVDVNVHPAKTELRFREPGLVRALIVSAIHEALRRAGARSSSTGTQAVLDALRAGAGMGSAPPMAAGVGRFAVHSGASTASALNPRPASRLFSGPSVAAPAGYRPAPRPAFTEDHPGFAETPQALFSADLAPPGADLRPEPEAVSEAETHPEAHPLGAARAQIHETYIVAQTRDGIVLVDQHAAHERLVYERLKSERAGGGVLAQGLLIPDVVEMAPEEADRLVEAAPELERLGLTLEAFGPGAVLVRSVPSALAGGSVKGLVLDVLDALAASGVEEGGPAGAGDPDPVSRRLDAILSRMSCHGSIRAGRRLKPEEMNALLREMEATPLSGSCNHGRPTFVSLGLADIERLFGRR	failed
MRERRFTSDAAHELRSPLTALKVQTEVAQLSDDDPQARKKALLQLHSGIDRATRLVDQLLTLSRLDSLDNLQDVAEIPLEDLLQSSVMDIYHTAQQAKIDVRLTLNAHSIKRTGQPLLLSLLVRNLLDNAVRYSPQGSVVDVTLNADNFIVRDNGPGVTPEALARIGERFYRPPGQTATGSGLGLSIVQRIAKLHGMNVEFGNAEQGGFEAKVSW	not failed
